Assay results from the nanobody polyreactivity screen of Harvey et al. (2022).

Assay: yeast display, Sf9 membrane polyspecificity reagent, FACS + sequencing; frameworks hold sequencing errors
In short: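 A synthetic nanobody library was expressed on Saccharomyces cerevisiae BJ5465 by galactose induction for 36–48 hours. The library was stained for 1 hour at 4 °C with 10% biotinylated, detergent-solubilized Sf9 membrane reagent and enriched with streptavidin microbeads before FACS. Low and high (top ~1%) gates were set on anti-HA fluorescence for expression and streptavidin fluorescence for reagent binding, and each polyreactivity label reflects the gate of origin.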

Row | Sequence | polyreactivity (PSR sort gate)
1 | QVQLVESGGGLVQAGGSLRLSCAASGRIFGNNAMGWYRQAPGKERELVAAISWSARSTYADSVKGRFTISRDNAKNTVYLQMNSLKPEVTAVYYCNADSAARKGWPIYGYWGQGTKVTVSS | high polyreactivity
2 | QGQLVESGGGLVQAGGSLRLSGAASGRTFRCNAMGWYRQAPGKERELVAAITSSGGRTYYADSVNGRFTISRDNAKNTVYLQMNSLKPEDTAVYYCAADAYQRGSGRYYEYDYWGQGTQVTVSS | high polyreactivity
3 | QVQLVESGGGLVQAGGSLRLSCAASGFTFSENAMGWYRQAPGRERELVADIPRSGGNTHYADSEKGRFTISRDNAKNTVYLQMNSLKPEDTAVYYCAARVQWLGYGYYYWGQGTQVTVSS | high polyreactivity
4 | QVQLVESGGGLVQAGGSLRLSCAASGFTFYNNAMGWYRQAPGKERELVAAISRSGGSTHYADSVKGRFTISRDTAKNTVYLQMNSLKPEDNAVYYCAKVGVLGYYTYYYWGQVTQVTVSS | low polyreactivity
5 | QVQLVESGGGLVQAGGSLRLICAASGRIIARNAMGWYRQAPGKERELVAAITARGARTYYADSVKGRFTISRDNAKNTVYLQMNSLKPEDTAVYYCAVVQGNVYYTGDDYWGQGTQVTVSS | high polyreactivity
6 | QVHLVESGGGLVQAGGSLRLSCAASGRTFENNAMGWYRPAPGKESELVAAITVSGGSTYYADSVKGRFTLSRDNAKNTVDLQMNSLKPEDTAVYYCAIVGFGIPGGFYYWGEGTQVTVSS | low polyreactivity
7 | QVQLVESGGGLVQAGGSLRLSCAASGRTFANNAMGWYRQAPGKERELVAAISNGDSTYADSVKGRFTISRDNAKNTVYLQMNSLKPEDTAVYYWATRTKEDYTGDYWGQGTQVTVSS | low polyreactivity
8 | QVQLVESGGGLVQAGGSLRLTCAASGSTFLGYAMGWYRQAPGKERELVAAINLSTSGTYYADSVKGRFTISRDNAKNTVYLQMNSLKPEDTAVYYCAAAYSNINYYYQYYYWGQGTQVTVSS | low polyreactivity
9 | QVHLVESGGGLVQAGGSLRLSCAASGYTFDSYAMGWYRQAPGKERELVAAISSGGRTKYADSVKGRFTISRDNAKNTVYLQMNSLKPEDTAFYYCAARRTFGVGILVGYWGQGTQVTVSS | high polyreactivity
10 | QVQHVESGGGLVQAGGSLRLSCAASRSTFYYYAMGWYRQAPGKERELVAAISRGGGSTYYADSVKGRFTISRDNAKNTVYLQMNSLKPEDTADDYCAARRVGGGFYTWRNPAYEYWGQGTQVTVSS | high polyreactivity
11 | QVQLVESGGGLVQAGGSLRLSCAASGRTFWYYAMGWSRQAPGKERELVAGITFTGGRTYYADSVKGRFTISRDNAKNTVYLQMNSLKPEDTAVYYCAAAGLDVGRKDRDGYWGQGTQVTVSS | low polyreactivity
12 | QVQLVESGGGLVQAGGSLRLSCAASGSTFVLYAMGWYRQAPGKERELVAAITKRGGNTYYADSVKGRFTISRDNAKNTVYLQMNSLKPEDTAVYYCAADHVRSPFDSWGQGTQVTVSS | low polyreactivity
13 | QVQLVESGGGLVQAGGSLRLSCAASGRTFVWNAMGWYRQAPGKERELVAAISSSGTSTYYADSVKGRFTISRDNAKNTVYLQMNSLKPEDTAVYYCAKDLLYQPTIRDYWGQGTQVTVSS | low polyreactivity
14 | QVQLVESGGGLVQAGGSLRLSCAASGIMFTSNTMGSYRQAPGKEREFVASINWNGSSTYADSVKGRFTISRDNAKNTDYLQMNSLKPEDTAVYYCNADYNRNSVQFSLYDYWGQGTQVTVSS | low polyreactivity
15 | QVQLVESGGGLVQAGGSLRLSCAASGRTFWYYTMGWYRQAPGKERELVASITYRGGSTYYADSVKGRFTISRDNAKNTDYLQMNSLKPEDTAVYYCNARYKRYSYDYWGQGTQVTVSS | high polyreactivity
16 | QVQLVESGGGLVQAGGSLRLSCAASGRTFASNAMGCYRQAPGKERELVAAITISGGRTYYADSVKGRFTISRDNAKNTVYLQMNSLKPEDTAVYYRAAAKHSWRPSYYWGGYWGQGTQVTVSS | low polyreactivity
17 | QVQLVESGGGLVQAGGSLRLSCAASGNTFYWYVMGWYRQAPGKERELVARITSSGGSTNYADSVKGRFTISRDNAKNTVYLQMNSLKPEDTAVYYCAADDIYLYGGGTDYYYWGQGTQVTVSS | low polyreactivity
18 | QVQLVESGGGLVQAGGSIRLSCAASGSTFRLYARGWYRQAPGKEREFVAAISFRGGSTYYADSVKGRFTISRDYSKNTVYLQMNSLKPEDTAVYYCNADYYYYYSWFNYWGQGTQVTVSS | high polyreactivity
19 | QVQLVESGGGLVQAGGSLRLSCAASGRIFDVYAMGWYRQAPGKERELVATISSSGGATYYADSVKGRFTISRDNAKNTVYLQMNSLKPEDTAVYYCATTYRPTFRRHYNYWGQGTQVTVSS | low polyreactivity
20 | QVQLVESGGGLVQAGGSLRLSCAASGRTFYSNVMGWYRQAPGKERELVAAISSSTYYADSVKGRFTISRDNANNTVYLQMNSLKPEDTAVYYCAAYSRYYPYYRYGYLGQGTQVTVSS | high polyreactivity
21 | QVQLVESGGGLVQAGGSLRLSCAASGSIFSTYVMVWYRQAPGKDRELVAAITVSVGSTYYADSVKGRFTISRDNAKNTVYLQMNSLKPEDTAVYYCAAYGGTGYPFDAYYHDYDYWGQGTQVTVSS | low polyreactivity
22 | QVQLVESGGGLVQAGGSLRLSCAASGSIFYFNAMGWYRQAPGKERELVAAITASGGRTYYADSVKGRFTISRDNAKNTVYLQMNSLKPEDTAVYYCNAYRPWSWWGEMDYWGQGTQVTVSS | high polyreactivity

Row | Sequence | polyreactivity (PSR sort gate)
23 | QVQLVESGGGLVQAGGSLRLSCAASGFTFGTYAMGWYRPAPGKERELVAAITRRGDNTYYADSVKGRFTISRDNAKNTVYLQMNSLNPEDTAVYYCIAAKGGRYPDYDYWGQGTQVTVSS | high polyreactivity
24 | QGQLVESGGGLVQAGGSLSLSCAASGSIFPVYAMGWYRQAPGTEREFVARIRFSGGRTYYADSVQGRFTISRDNAKNTVYLQMNSLKPEDTAVYYCAKAQYRGRYGYWGQGTQVTVSS | high polyreactivity
25 | QVQLVESGGGLVQAGGSLRLSCAASGFTFKRYAMGWYRQAPGKERELVAAISWSGGSTYYADSVKGRFTISRDNAKNTVYLQMNSLKPEDTAVYYCAADGGSTEEYYYWGQGTQVTVST | high polyreactivity
26 | QVQLVESGGGLVQAGGSLRLSCAASGFTLTQNAMGWYRQAPGKERELVAAISRSGGRTYYADSVKGRFTISRDNAKNTVYLQMNSLKPEDTAVYYCNAYVTYPGTTMDDWGQGTQVTVSS | high polyreactivity
27 | QVQLVESGGGLVQAGGSLRLSCAASGFIFRYYAMGWYRQAPGKERELVAAISKRGGRTYYADSVKGRFTISRDNAKNTVYLQMNSLKPEDTAVYYCAAGVGTVAPDMDYWGQGTQVTVSS | high polyreactivity
28 | QVQLVESGGGLVQAGGSLRLSCAASGRTFGLNAMGWYRQAPGKERELVAAITSGGSTYYADSVKGRFTITRDNAKTTVYLQMNSLKPEDTAVYYCAAAYFDFWGWLHDYWGQGTQVTVSS | low polyreactivity
29 | QGQLVESGGGLLQAGGSLRLSCAASGRTFPYNALGWYRQAPGKERELVAAMSSGTRTDSADAVKGRFTISRDTAKNTVYLQMNSLKPEATAVYYWAADDYHYLWRADGFDYWGQGTQVTVSS | high polyreactivity
30 | QVQLVESGGGLVQAGGSLRLSCAASGRIFYPYAMGWYRQAPGQERELVAVINGSGGSTYYADSVKGRFTISRDNAKNTVYLQMNSLKPEDTAVYYCAAVGAYSRNEYDYWGQGTQVTVSS | high polyreactivity
31 | QVQLVESGGGLVQAGGSLRLSCAASGFTFNRYAMGWYRQAPGKERELVATITSGGNTYYADSVKGRFTISRDNAKNTVYLQMNSLKPEDTAVYYCNKRGWYSVYRRDFWGQGTQVTVSS | high polyreactivity
32 | QVQLVETGGGLVQAGGSLRLSCAASGRNFNWNTMGWYRQAPRKEREFDAAISGSGGSTYYADSVKGRFTISRDNAKNTVYLQMISLKPEDTAVYYCAKRLYYSYYDEMDYWGQGTQVTVSS | high polyreactivity
33 | QVQLVESGGGLVQAGGSLRLSCAASGRIYVNAMGWYRQAPGKERELVAAIRSGGSTNYADSVKGRFTISRDNAKNTVYLQMNSLKPEDTAVYYCNARRRDYRHWYDYWGQGTQVTVSS | high polyreactivity
34 | QVQLVESGGGLVQAGGSLRLSCAASGIIFGRYAMGWYRQAPGKERELVAVISRSGGSTYYADSVKGRFTISRDYAKNSVYLQMNSLKPEDTAVYYCAARYTPTYNAGLDYWGQGSQVTVSS | high polyreactivity
35 | QVQLVESGGGLVQAGGSLRLSCAASGRIFRGYAMGWYRQAPGKERELVADISSGASTNYADSVKGRFTISRDNAKKTVYFQMNSLKPEDTAVYYCAAQHSVLAYFEDDYWGQGTQVTVSS | low polyreactivity
36 | QVQLVESGGGLVQAGGSLRLSCAASGSIFYVYAMGWYRQAPGKEREMVAAINTSGGSTFYADSVKGRFTISRDNAKNTVYLQMNSLKPEETAVYYCAAERYRYRSTDTMVYWGQGTQVTVSS | low polyreactivity
37 | QVQLVESGGRLVQAGGILRLSCAASGFIFLSYAMGWYRQAPGKERELVAAITSNGGSTYYADSVKGRFTISRDNAKNTVYLQMNSLKPEDTSVYYCAARFSQGKVRMGYWGQGTQVTVSS | high polyreactivity
38 | QVQLVESGGGLVQAGGSLRLSCAASGSTILKYAMGWYRQAPGKERELVAAITSDGTSYADSVKGRFTISRDNAKNTVYLQMNSLKPEDTAVYYCAIDYRHPTFDYWGQGTQVTVSS | low polyreactivity
39 | QVQLVESGGGFVQAGGSLRLSCAASGRIRFYAMGWYRQAPGKERELVAAISSSGGSTYYADSVKGSFTISRDNAKNTVYLQMNSLKPEDTAVYYCAAAWYYLGTRAQLYDYWGQGTQVTVSS | low polyreactivity
40 | QVQLVESGGGLVQAGGSLRLSCAASGITFYRYAMGWYRQEPGKERELVAAISRSGGSTYYADSVKGRFTISRDNAKNTVYLQMNSLKPQDTEVYYCADYILGNRVGYDYWGQGTQVTVSS | high polyreactivity
41 | QVQLVESGGGLVQAGGSLRLSCAASGSIFYRNAMGWYRQAPGKERELVAAISSDGSTNYADSVKGRFTISRDNAKNTVYLQMNSLKPEDTAVYDCAGLQKRRSYWRPFYWGQGTQVTVSS | low polyreactivity
42 | QVQLVESGGGLVQAGGSLRLSCAASGSILTPYAMGWYRQAPGKERELVAAISWGDGSTYYADSVKGRFTISRDNAKNTVYLQMNSLNPEDNAVYYCAAVSYYGVDQYRITVYTYEYWGQGTQVTVSS | low polyreactivity
43 | QVQLVESGGGLVQAGGSLRLSCAASGFIFYSYAMGWYRQAPGKERELVATITSGGSTNYADSVKGRFTISRDNAKNTVYLQMNSLKPEDTAVYYCAARYYPFWARRNRYDYWGQGTQVTVSS | high polyreactivity
